B1: BCD090-M2 (VHH)
VHH: QVQLVQSGGGLVQAGGSLRLSCAFSGRTFSMYTMGWFRQAPGKEREFVAANRGRGLSPDIADSVNGRFTISRDNAKNTLYLQMDSLKPEDTAVYYCAADLQYGSSWPQRSSAEYDYWGQGTTVTVSS
notes: llama VHH from a phage display library; the product left after TEV cleavage; no PDB id is printed; also called anti-ErbB3 single-domain antibody BCD090-M2; source: E. coli SHuffle T7 express, cytoplasmic, purified (IMAC, TEV cleavage, negative IMAC, ion exchange); not shown: His tag, N-terminal, cleaved; SUMO, N-terminal, cleaved
B2: BCD090-P1 (VHH)
VHH: EVQLVQSGGGLVQPGGSLRLSCAASGRTSSKYAMGWFRQAPGKGTEFVATISWSDGSTYYADSVEGRFTISRDNAKNTVYLQMNSLKPEDTAVYYCAAAVDVLAGTFEYEYDYWGQGTLVTVSS
notes: llama VHH from a phage display library; the product left after TEV cleavage; Monomer by SEC; One disulfide bond Cys22-Cys92; also called anti-ErbB3 single-domain antibody BCD090-P1; source: E. coli SHuffle T7 express or BL21(DE3), cytoplasmic, purified (IMAC, TEV cleavage, negative IMAC, ion exchange); not shown: His tag, N-terminal, cleaved; SUMO, N-terminal, cleaved
B3: pelB-BCD090-P1-His5 (VHH)
VHH: EVQLVQSGGGLVQPGGSLRLSCAASGRTSSKYAMGWFRQAPGKGTEFVATISWSDGSTYYADSVEGRFTISRDNAKNTVYLQMNSLKPEDTAVYYCAAAVDVLAGTFEYEYDYWGQGTLVTVSS
notes: as the VHH of m1 (BCD090-P1), with the uncleaved pelB leader and a histidine tag; also called BCD090-P1 purified from the periplasm; periplasmically expressed BCD090-P1; source: E. coli, periplasmic expression (pET22b), purified; not shown: pelB leader (uncleaved), N-terminal, kept; His5, C-terminal, kept
B4: BCD090-P1 conjugated with Cy5 or AF488 (VHH)
VHH: EVQLVQSGGGLVQPGGSLRLSCAASGRTSSKYAMGWFRQAPGKGTEFVATISWSDGSTYYADSVEGRFTISRDNAKNTVYLQMNSLKPEDTAVYYCAAAVDVLAGTFEYEYDYWGQGTLVTVSS
notes: as the VHH of m1 (BCD090-P1); also called labeled BCD090-P1; source: E. coli, purified, then labelled with sulfo-Cy5 or AF488 NHS ester
B5: BCD090-M456 (VHH)
VHH: QVQLVQSGGGLVQSGGSLKLSCVASGGPFSTYLMGWFRQAPGKEREFVTAISRSGLNTYYADSVKGRFTISRDNAKNTVYLQMHSLKPEDTAVYHCAARRGGTNSGSYYFDRPAVSDEYDLWGQGTLVTVSS
notes: llama VHH from a phage display library; the product left after TEV cleavage; Lacks the Cys22-Cys92 disulfide bond (cysteines reduced); CDR H3 of 23 residues; also called anti-ErbB3 single-domain antibody BCD090-M456; source: E. coli SHuffle T7 express or BL21(DE3), cytoplasmic, purified (IMAC, TEV cleavage, negative IMAC, ion exchange); not shown: His tag, N-terminal, cleaved; SUMO, N-terminal, …

How the values were obtained:
[1] = target: T1, human ErbB3 extracellular subdomain 3 (ECD^III, residues 329-532) (Homo sapiens, UniProt P21860); experiment: SPR; ErbB3 ECD^III immobilised on a CM5 chip by amine coupling; Biacore T200, 37 °C; HBS with 50 µg/mL BSA; details: both partners purified
T1 construct: ErbB3 (HER3) receptor, human, extracellular subdomain 3, residues 329-532; secreted with the Igκ leader of the pEE vector; Glycosylated, MW ~25 kDa; also called ErbB3 ECD^III; source: CHO-T-HC cells, transiently transfected, secreted, purified (CaptureSelect C-tag resin)

[2] = target: T2, extracellular domain of ErbB2 (Homo sapiens (assumed), UniProt P04626); experiment: SPR; test of antibody specificity against the extracellular domain of ErbB2 (Figure S5); Biacore T200, CM5 chip, 37 °C; details: both partners purified
T2 construct: ErbB2 (HER2) receptor, extracellular domain; also called ErbB2 ECD

[3] = target: T3, human ErbB3 extracellular domain (ECD, residues 21-643) (Homo sapiens, UniProt P21860); experiment: SPR; ErbB3 ECD immobilised on a CM5 chip by amine coupling; Biacore T200, 37 °C; HBS with 50 µg/mL BSA; equilibrium response read 5 s before injection end, fitted by the Hill equation; geometric means of two experiments; details: both partners purified
T3 construct: ErbB3 (HER3) receptor, human, extracellular domain, residues 21-643; secreted with the Igκ leader of the pEE vector; Glycosylated, MW 75 kDa; also called ErbB3 ECD; HER3 extracellular domain; source: CHO-T-HC cells, transiently transfected, secreted, purified (IMAC on HisTrap, SEC on Superdex 200 pg)

[4] = target: T3, human ErbB3 extracellular domain (ECD, …); experiment: SPR; ErbB3 ECD immobilised on a CM5 chip by amine coupling; Biacore T200, 37 °C; antibodies in HBS (10 mM HEPES pH 7.4, 150 mM NaCl) with 50 µg/mL BSA; sensograms fitted globally by a 1:1 model at three concentrations near KD; geometric means of two experiments; details: both partners purified
[5] = target: T4, ErbB3 receptor on cancer cells (Homo sapiens, UniProt P21860); experiment: immunostaining of cells or tissue; live cells stained 30 min in PBS with 5 µg/mL directly labelled antibody and Hoechst 33342; confocal microscopy; MCF-7, SK-BR-3, BT-474, Hep G2; K562 as negative control; details: one partner purified
T4 construct: ErbB3 (HER3) receptor, endogenous on human cancer cell lines; also called HER3; source: endogenous, on live MCF-7, SK-BR-3, BT-474 and Hep G2 cells
T4 sequence (P21860 20-1342): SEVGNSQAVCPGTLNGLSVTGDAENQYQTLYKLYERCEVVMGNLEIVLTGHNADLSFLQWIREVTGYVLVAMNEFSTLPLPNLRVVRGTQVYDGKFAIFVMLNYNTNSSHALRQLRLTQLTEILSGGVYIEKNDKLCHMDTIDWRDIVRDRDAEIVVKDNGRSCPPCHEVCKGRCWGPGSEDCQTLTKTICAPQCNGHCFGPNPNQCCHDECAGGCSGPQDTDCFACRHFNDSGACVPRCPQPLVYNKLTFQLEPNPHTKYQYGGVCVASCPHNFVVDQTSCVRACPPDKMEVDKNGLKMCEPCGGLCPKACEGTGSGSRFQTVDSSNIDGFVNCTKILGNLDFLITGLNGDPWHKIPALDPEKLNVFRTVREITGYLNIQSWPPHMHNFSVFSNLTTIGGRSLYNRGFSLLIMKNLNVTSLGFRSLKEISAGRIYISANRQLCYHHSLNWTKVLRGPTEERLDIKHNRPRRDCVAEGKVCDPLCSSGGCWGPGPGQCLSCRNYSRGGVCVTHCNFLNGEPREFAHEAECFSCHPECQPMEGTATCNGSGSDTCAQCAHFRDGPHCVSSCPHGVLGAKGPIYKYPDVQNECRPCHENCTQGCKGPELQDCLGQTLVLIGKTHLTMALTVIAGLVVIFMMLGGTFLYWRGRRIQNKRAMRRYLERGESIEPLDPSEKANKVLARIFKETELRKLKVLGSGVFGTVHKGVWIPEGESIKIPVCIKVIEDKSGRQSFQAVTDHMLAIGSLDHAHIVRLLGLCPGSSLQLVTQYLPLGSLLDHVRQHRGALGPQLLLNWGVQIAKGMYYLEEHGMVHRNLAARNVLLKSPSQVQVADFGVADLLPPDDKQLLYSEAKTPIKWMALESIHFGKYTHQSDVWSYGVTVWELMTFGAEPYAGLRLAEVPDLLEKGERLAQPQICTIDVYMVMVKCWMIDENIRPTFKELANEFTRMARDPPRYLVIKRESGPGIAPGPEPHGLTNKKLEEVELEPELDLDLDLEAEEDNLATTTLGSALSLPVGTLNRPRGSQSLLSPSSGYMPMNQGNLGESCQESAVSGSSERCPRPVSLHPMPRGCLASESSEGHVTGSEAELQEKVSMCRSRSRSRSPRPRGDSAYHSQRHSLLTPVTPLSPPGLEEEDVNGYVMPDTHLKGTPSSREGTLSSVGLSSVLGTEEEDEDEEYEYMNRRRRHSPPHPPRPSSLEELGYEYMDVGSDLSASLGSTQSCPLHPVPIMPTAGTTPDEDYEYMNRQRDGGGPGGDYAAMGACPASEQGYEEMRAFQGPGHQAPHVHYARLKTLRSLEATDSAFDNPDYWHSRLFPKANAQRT

T1 sequence (P21860 329-532): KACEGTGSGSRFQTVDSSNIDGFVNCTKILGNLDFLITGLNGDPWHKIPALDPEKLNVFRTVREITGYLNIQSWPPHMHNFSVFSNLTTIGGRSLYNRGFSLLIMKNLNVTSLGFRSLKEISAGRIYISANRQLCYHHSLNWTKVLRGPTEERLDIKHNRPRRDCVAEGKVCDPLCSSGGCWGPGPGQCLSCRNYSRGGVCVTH
T3 sequence (P21860 21-643 R488S): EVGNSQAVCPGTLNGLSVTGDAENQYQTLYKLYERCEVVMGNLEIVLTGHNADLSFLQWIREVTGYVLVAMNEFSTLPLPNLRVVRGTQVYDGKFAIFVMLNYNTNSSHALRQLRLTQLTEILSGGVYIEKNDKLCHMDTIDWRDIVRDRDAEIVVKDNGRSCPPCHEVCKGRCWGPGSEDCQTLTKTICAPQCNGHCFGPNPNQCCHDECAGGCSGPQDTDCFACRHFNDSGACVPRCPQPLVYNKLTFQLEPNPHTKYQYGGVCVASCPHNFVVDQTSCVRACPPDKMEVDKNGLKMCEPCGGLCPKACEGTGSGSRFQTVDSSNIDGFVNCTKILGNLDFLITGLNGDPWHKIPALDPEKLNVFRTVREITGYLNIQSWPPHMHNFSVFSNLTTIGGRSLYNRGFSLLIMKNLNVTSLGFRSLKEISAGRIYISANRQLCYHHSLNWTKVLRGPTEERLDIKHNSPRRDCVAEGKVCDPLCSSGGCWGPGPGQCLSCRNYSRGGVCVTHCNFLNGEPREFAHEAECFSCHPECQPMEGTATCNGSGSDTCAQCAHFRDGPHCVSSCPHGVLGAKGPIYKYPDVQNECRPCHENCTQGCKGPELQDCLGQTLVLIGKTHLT

Binder	binding result [1]	binding result [2]	Kd [3]	Kd [4]	koff [4]	kon [4]	binding result [5]
B1	no binding	no binding	15 ± 1 nM	16.5 ± 2 nM	0.0036 s⁻¹	220000 M⁻¹ s⁻¹	–
B2	binds	no binding	1.61 ± 0.06 nM	1.6 ± 0.2 nM	0.003 s⁻¹	1.9e+06 M⁻¹ s⁻¹	–
B3	–	–	6.5 ± 0.9 nM	5.1 ± 0.9 nM	0.0044 s⁻¹	870000 M⁻¹ s⁻¹	–
B4	–	–	–	–	–	–	binds
B5	no binding	–	8600 ± 800 nM	3100 ± 200 nM	0.0022 s⁻¹	720 M⁻¹ s⁻¹	–

Reference: article PMC8467012, “Targeting ErbB3 Receptor in Cancer with Inhibitory Antibodies from Llama” (Biomedicines, 2021)
